Residue numbers refer to the chain shown, from its start. One block for each binder: values may come before it.
What was measured:
[1] = target: human folate receptor 1 (FOLR1) (human)
[2] = target: human folate receptor 1 (FOLR1) (human); remark: listed apart in the source
[3] = target: human folate receptor 1 (FOLR1) (human); remark: listed apart in the source

ADCC, LDH release, percent specific lysis of IGROV-1 cells with human NK effector cells [1]: 30% | EC50 of ADCC activity on IGROV-1 cells [1]: 0.2 ng/mL
B1: huMov19 (antibody, V domains shown)
VH: QVQLVQSGAEVVKPGASVKISCKASGYTFTGYFMNWVKQSPGQSLEWIGRIHPYDGDTFYNQKFQGKATLTVDKSSNTAHMELLSLTSEDFAVYYCTRYDGSRAMDYWGQGTTVTVSS
VL: DIVLTQSPLSLAVSLGQPAIISCKASQSVSFAGTSLMHWYHQKPGQQPRLLIYRASNLEAGVPDRFSGSGSKTDFTLNISPVEAEDAATYYCQQSREYPYTFGGGTKLEIKR

huAb-smcc-DM1 activity on KB in vitro [2]: 0.1 nM
B2: huMov19-SMCC-DM1 (antibody, V domains shown)
VH: B1 VH
VL: B1 VL
modifications: maytansinoid DM1 linked to the antibody through the SMCC linker, 3.5-4 DM1 per antibody; attachment residues not stated
IC50, nM (n = 3), Ab-based; in vitro cytotoxicity on IGROV-1 cells [3]: 1 nM | IC50, nM (n = 3), Ab-based; in vitro cytotoxicity on JEG-3 cells [3]: 20 nM | IC50, nM (n = 3), Ab-based; in vitro cytotoxicity on KB cells [3]: 0.1 nM

Further lines, the binder ahead of its results:

B3: huMov19-sulfo-SPDB-DM4 (antibody, V domains shown)
VH: B1 VH
VL: B1 VL with N78T
modifications: maytansinoid DM4 linked to the antibody through the sulfo-SPDB linker, 3.5-4 DM4 per antibody; attachment residues not stated
IC50, nM (n = 3), Ab-based; in vitro cytotoxicity on IGROV-1 cells [3]: 0.3 nM

B4: huMov19-SPDB-DM4 (antibody, V domains shown)
VH: B1 VH
VL: B1 VL with N78T
modifications: maytansinoid DM4 linked to the antibody through the SPDB linker, 3.5-4 DM4 per antibody; attachment residues not stated
IC50, nM (n = 3), Ab-based; in vitro cytotoxicity on JEG-3 cells [3]: 0.2 nM
